{"source": "patent US20250277199", "about": "“NOVEL CRISPR-CAS NUCLEASES FROM METAGENOMES” (Brain Biotech AG, published 2025)", "binders": {"B1": {"name": "malQ gRNA (BMC stem-loop + 24 nt spacer) ; malQ protospacer (ssRNA ; dsDNA)", "RNA": "GAUUUCUACUAUUGUAGAUGUGGCGGUACGUUGAUGCAUCGCG", "DNA 1": "GTGGCGGTACGTTGATGCATCGCG", "DNA 2": "CGCGATGCATCAACGTACCGCCAC"}}, "molecular_target": "T1, BMC13 (uncultured bacterium (metagenome))", "T1 chain": "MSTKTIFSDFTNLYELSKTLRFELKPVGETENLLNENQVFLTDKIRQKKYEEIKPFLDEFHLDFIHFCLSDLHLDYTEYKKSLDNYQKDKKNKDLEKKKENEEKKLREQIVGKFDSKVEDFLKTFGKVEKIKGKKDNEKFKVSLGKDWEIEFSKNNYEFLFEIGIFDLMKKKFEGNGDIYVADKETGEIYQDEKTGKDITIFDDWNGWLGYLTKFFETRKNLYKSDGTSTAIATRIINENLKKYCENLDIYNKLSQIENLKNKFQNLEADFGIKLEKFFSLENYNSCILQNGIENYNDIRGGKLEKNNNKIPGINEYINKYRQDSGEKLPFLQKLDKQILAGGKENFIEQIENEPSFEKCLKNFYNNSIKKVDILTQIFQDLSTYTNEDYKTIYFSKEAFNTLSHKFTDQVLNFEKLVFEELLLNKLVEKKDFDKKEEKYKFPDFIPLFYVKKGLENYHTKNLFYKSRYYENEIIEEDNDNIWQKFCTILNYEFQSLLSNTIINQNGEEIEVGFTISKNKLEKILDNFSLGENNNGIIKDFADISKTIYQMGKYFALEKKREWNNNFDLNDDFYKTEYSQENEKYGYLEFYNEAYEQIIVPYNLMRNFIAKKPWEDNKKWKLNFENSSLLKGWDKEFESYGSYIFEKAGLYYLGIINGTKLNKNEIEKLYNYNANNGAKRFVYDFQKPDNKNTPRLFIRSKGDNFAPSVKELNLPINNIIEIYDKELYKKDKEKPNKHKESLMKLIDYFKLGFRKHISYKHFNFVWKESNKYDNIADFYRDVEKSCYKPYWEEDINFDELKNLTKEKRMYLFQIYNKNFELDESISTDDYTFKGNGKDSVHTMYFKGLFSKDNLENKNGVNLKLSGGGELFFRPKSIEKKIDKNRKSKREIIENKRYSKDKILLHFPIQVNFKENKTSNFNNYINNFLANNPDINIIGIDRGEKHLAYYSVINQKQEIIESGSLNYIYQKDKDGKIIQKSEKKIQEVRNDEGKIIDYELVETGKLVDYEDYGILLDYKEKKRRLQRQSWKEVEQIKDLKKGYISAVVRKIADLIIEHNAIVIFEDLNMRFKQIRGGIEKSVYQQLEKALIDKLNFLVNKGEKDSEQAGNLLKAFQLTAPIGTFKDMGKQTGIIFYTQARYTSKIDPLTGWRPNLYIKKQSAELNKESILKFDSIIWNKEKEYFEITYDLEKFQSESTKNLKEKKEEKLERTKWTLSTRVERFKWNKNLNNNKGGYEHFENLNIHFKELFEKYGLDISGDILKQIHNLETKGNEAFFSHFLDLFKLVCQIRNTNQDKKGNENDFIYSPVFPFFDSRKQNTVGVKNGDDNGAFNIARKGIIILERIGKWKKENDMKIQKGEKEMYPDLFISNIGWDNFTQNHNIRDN", "assay": "cell_activity; PAM not stated; E. coli depletion, 30 C", "in_short": "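E. coli carrying arabinose-induced (0.2%) BMC nuclease, grown at 30° C., made electrocompetent and electroporated with 50-100 ng plasmid carrying gRNA against malQ. Transformants plated on selective M9-glucose agar with kanamycin/ampicillin (± nourseothricin), and growth scored after 48 h at 30° C.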"}
{"binder": "B1", "values": [{"measurement": "activity", "result": "> 99.9", "unit": "% colony reduction"}]}
